Experimental data published in patent US20260176335A1 (TRUSTEES OF COLUMBIA UNIVERSITY IN THE CITY OF NEW YORK, published 2026).

How the values were obtained:
[1] = target: T1, human serum amyloid A1 (SAA1) (human, UniProt P0DJI8 19-122); assay: Kd calculated from competitive binding curves (competitive peptide 0.625-80 nM against SAA1 at 150 ng/ml), NFκB-luciferase reporter cell readout
T1 construct: also called SAA1 antigen; SAA1 protein
T1 sequence (looked up): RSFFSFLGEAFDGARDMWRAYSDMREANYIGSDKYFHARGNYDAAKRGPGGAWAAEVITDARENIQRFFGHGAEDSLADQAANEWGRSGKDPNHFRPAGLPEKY
Experimental: Raw 264.7-NFκB-Luc cells were seeded at a density of 60,000 cells in 40 μl media/well in a 96-well plate. The plate was placed at 37° C. in a 5% CO₂ incubator overnight to allow cells to adhere. 5 μL of SAA1 antigen solution (150 ng/ml) was added to each well. 10 μL of the competitive antigen standard solution was added to the respective wells. 10 μL of the purified antibody (18A3-S1-F) solution was added to each well.
The plate was incubated at 37° C. in a 5% CO₂ incubator for 2 hours to allow binding between the antibody and antigens. 10 μL of the viability dye (i.e., the Cell Titer Fluor reagent; Promega) was added, and the plate was rocked for 5 minutes and incubated at 37° C. in a 5% CO₂ incubator for 30 minutes. Then […] reading was taken with 7-amino-4-trifluoromethyl-coumarin (AFC) (excitation 405 nm/emission […]). After 3 hours, 1:1 Bright Glo Luciferase reagent (Promega) was added, and the plate was rocked for 5 minutes in dark (covered with foil) before the reading was taken.
The dissociation constant (Kd) was calculated from the competitive binding curves (FIG. 4E). The lower the Kd value, the higher the binding affinity of the antibody.

[2] = target: T1, human serum amyloid A1 (SAA1); assay: cell-based or functional assay

Kd [1]: 0.94 to 1.12 nM | EC50 (half-maximal inhibition of SAA1-induced NFκβ activation, reporter assay) [2]: 2.55 nM
B1: murine anti-SAA1 18A3 antibody (antibody, V domains shown)
VH: DVQLVESGGGLVQSGGSRKLSCAASGFTFSRFGMHWVRQAPEKGLEWVAYISRGSTKIYYADTVKGRFTISRDNPRNTLFLQMTSLRSEDTAMYYCARSLIYYDYDGFGYWGQGTLVTVSA
VL: DVLMTQTPLSLPLSLGDQASISCRSSQSIVHSNGNTYLEWYLQKPGQSPKLLIYKVSNRFSGVPDRFSGSGSGTDFTLKISRVEAEDLGVYYCFQGSHVPPTFGGGTKLEIK
notes: Murine hybridoma monoclonal antibody; Tested as hybridoma supernatant or as purified antibody from subclone 18A3-S1-F / 18A3-S1; also called 18A3-S1-F; 18A3-S1
